{"source": "paper PMC6504924", "about": "(2019)", "key": {"[1]": {"molecular_target": "T1, NanoLuc:EGFR fusion on cells (UniProt P00533 25-1210)"}, "[2]": {"molecular_target": "T1, NanoLuc:EGFR fusion on cells", "remark": "listed apart in the source"}, "[3]": {"molecular_target": "T1, NanoLuc:EGFR fusion on cells", "assay": "competition with CBT-labeled EGF"}, "[4]": {"molecular_target": "T1, NanoLuc:EGFR fusion on cells", "assay": "competition with CBT-labeled EGF", "remark": "listed apart in the source"}, "[5]": {"molecular_target": "T2, NanoLuc:VEGFR2 fusion on cells (UniProt P35968 20-1356)", "T2 sequence (P35968 20-1356)": "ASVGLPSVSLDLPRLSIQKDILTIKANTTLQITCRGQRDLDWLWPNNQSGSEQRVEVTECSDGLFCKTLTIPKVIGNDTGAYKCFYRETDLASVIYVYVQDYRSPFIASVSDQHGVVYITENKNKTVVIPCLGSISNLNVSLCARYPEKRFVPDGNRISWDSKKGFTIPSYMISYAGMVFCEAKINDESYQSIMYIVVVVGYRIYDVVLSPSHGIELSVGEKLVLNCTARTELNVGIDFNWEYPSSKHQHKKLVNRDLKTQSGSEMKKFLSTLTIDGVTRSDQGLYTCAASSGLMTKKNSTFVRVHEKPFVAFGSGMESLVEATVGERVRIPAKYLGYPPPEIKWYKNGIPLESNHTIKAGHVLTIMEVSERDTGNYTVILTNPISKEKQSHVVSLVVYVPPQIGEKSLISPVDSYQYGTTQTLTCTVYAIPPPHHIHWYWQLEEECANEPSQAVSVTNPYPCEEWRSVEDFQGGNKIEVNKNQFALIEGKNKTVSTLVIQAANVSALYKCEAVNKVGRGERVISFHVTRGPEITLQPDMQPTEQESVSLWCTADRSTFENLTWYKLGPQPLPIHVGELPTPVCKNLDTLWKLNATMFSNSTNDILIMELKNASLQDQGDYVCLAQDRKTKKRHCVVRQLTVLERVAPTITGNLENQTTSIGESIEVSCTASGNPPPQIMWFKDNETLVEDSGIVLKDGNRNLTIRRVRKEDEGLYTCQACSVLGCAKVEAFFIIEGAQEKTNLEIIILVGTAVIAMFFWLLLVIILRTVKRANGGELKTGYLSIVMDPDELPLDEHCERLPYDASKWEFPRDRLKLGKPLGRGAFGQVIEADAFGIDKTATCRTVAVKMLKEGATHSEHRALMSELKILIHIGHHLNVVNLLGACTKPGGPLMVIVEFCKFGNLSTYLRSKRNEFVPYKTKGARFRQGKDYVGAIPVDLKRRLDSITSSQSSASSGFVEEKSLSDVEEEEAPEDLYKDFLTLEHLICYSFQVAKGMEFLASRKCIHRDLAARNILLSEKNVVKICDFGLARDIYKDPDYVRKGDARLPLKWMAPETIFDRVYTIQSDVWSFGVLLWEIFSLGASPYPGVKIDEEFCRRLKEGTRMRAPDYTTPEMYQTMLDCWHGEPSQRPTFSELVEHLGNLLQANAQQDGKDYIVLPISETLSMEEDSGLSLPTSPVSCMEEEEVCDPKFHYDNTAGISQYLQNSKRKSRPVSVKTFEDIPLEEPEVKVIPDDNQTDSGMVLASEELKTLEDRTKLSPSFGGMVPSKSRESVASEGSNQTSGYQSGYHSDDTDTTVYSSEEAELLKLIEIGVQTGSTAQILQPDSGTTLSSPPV", "assay": "competition with CBT-labeled VEGF165a"}, "[6]": {"molecular_target": "T2, NanoLuc:VEGFR2 fusion on cells", "assay": "competition with CBT-labeled VEGF165a", "remark": "listed apart in the source"}, "[7]": {"molecular_target": "T2, NanoLuc:VEGFR2 fusion on cells"}, "[8]": {"molecular_target": "T3, NanoLuc:PDGFRβ fusion on cells (UniProt P09619 33-1106)", "T3 sequence (P09619 33-1106)": "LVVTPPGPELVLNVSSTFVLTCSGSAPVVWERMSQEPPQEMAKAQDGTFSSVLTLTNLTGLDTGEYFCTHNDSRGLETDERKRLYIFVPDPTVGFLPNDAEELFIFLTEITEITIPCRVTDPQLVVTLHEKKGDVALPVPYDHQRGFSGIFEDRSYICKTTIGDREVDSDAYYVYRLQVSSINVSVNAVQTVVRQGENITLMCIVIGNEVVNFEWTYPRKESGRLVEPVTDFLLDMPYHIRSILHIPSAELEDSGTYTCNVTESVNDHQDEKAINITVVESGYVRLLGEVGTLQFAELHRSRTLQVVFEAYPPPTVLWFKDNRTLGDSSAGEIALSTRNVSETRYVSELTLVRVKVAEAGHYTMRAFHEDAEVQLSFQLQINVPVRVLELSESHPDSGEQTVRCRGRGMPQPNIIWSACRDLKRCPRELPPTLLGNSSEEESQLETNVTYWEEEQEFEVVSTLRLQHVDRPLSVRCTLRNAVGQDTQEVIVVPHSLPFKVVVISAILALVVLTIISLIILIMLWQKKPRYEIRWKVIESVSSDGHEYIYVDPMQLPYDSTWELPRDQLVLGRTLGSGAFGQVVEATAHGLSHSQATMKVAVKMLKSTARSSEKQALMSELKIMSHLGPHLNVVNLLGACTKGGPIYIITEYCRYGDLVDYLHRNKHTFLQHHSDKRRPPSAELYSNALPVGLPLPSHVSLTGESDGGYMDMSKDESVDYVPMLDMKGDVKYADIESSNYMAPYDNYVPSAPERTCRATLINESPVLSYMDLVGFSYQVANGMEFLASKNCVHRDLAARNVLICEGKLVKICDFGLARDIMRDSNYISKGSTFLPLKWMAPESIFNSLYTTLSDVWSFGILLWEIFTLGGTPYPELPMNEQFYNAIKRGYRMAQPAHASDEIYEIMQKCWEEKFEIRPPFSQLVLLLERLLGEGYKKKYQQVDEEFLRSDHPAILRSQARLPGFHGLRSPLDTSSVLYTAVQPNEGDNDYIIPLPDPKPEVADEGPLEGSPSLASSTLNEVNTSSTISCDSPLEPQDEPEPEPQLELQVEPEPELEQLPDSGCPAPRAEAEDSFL"}, "[9]": {"molecular_target": "T3, NanoLuc:PDGFRβ fusion on cells", "remark": "listed apart in the source"}, "[10]": {"molecular_target": "T3, NanoLuc:PDGFRβ fusion on cells", "assay": "competition with CBT-labeled PDGF-BB"}, "[11]": {"molecular_target": "T3, NanoLuc:PDGFRβ fusion on cells", "assay": "competition with CBT-labeled PDGF-BB", "remark": "listed apart in the source"}}}
{"binder": "CBT-labeled EGF (epidermal growth factor labeled with DY605-PEG-CBT on the N-terminal cysteine) (ligand, DY605-PEG-CBT on the N-terminal cysteine (>=95% efficiency)) CDNNSDSECPLSHDGYCLHDGVCMYIEALDKYACNCVVGYIGERCQYRDLKWWELR", "values": [{"measurement": "EC50", "setting": "[1]", "result": 0.13, "unit": "nM"}, {"measurement": "Kd", "setting": "[2]", "result": 0.16, "unit": "nM"}]}
{"binder": "EGF labeled with 2-fold molar excess of DY605-NHS-ester (ligand, DY605-NHS-ester on multiple lysines and on the N-terminus, heterogeneous (0-2 fluorophores per protein)) CDNNSDSECPLSHDGYCLHDGVCMYIEALDKYACNCVVGYIGERCQYRDLKWWELR", "values": [{"measurement": "EC50", "setting": "[1]", "result": 0.16, "unit": "nM"}]}
{"binder": "unlabeled EGF purified in the same manner (with CDN N-terminal appendage) (ligand, not fully specified) CDNNSDSECPLSHDGYCLHDGVCMYIEALDKYACNCVVGYIGERCQYRDLKWWELR", "values": [{"measurement": "IC50", "setting": "[3]", "result": 0.35, "unit": "nM"}, {"measurement": "Ki", "setting": "[4]", "result": 0.15, "unit": "nM"}]}
{"binder": "EGF labeled with 5-fold molar excess of DY605-NHS-ester (ligand, DY605-NHS-ester on multiple lysines and on the N-terminus, heterogeneous (0-2 fluorophores per protein)) CDNNSDSECPLSHDGYCLHDGVCMYIEALDKYACNCVVGYIGERCQYRDLKWWELR", "values": [{"measurement": "EC50", "setting": "[1]", "result": 0.25, "unit": "nM"}]}
{"binder": "unlabeled VEGF165a homodimer purified in the same manner (with CDN N-terminal appendage) (ligand, disulfide-linked homodimer; unlabeled; mature VEGF165 limits by convention (191-aa AUG-initiated isoform precursor, signal 1-26)) CDNAPMAEGGGQNHHEVVKFMDVYQRSYCHPIETLVDIFQEYPDEIEYIFKPSCVPLMRCGGCCNDEGLECVPTEESNITMQIMRIKPHQGQHIGEMSFLQHNKCECRPKKDRARQENPCGPCSERRKHLFVQDPQTCKCSCKNTDSRCKARQLELNERTCRCDKPRR", "values": [{"measurement": "IC50", "setting": "[5]", "result": 0.12, "unit": "nM"}, {"measurement": "Ki", "setting": "[6]", "result": 0.047, "unit": "nM"}]}
{"binder": "CBT-labeled VEGF165a homodimer (vascular endothelial growth factor isoform VEGF165a labeled with DY605-PEG-CBT on the N-terminal cysteine) (ligand, DY605-PEG-CBT on the N-terminal cysteine (>=95% efficiency)) CDNAPMAEGGGQNHHEVVKFMDVYQRSYCHPIETLVDIFQEYPDEIEYIFKPSCVPLMRCGGCCNDEGLECVPTEESNITMQIMRIKPHQGQHIGEMSFLQHNKCECRPKKDRARQENPCGPCSERRKHLFVQDPQTCKCSCKNTDSRCKARQLELNERTCRCDKPRR", "values": [{"measurement": "Kd", "setting": "[7]", "result": 0.049, "unit": "nM"}]}
{"binder": "CBT-labeled PDGF-BB homodimer (platelet-derived growth factor labeled with DY605-PEG-CBT on the N-terminal cysteine) (ligand, DY605-PEG-CBT on the N-terminal cysteine (>=95% efficiency)) CDNSLGSLTIAEPAMIAECKTRTEVFEISRRLIDRTNANFLVWPPCVEVQRCSGCCNNRNVQCRPTQVQLRPVQVRKIEIVRKKPIFKKATVTLEDHLACKCETVAAARPVT", "values": [{"measurement": "EC50", "setting": "[8]", "result": 0.068, "unit": "nM"}, {"measurement": "Kd", "setting": "[9]", "result": 0.062, "unit": "nM"}]}
{"binder": "unlabeled PDGF-BB homodimer purified in the same manner (with CDN N-terminal appendage) (ligand) CDNSLGSLTIAEPAMIAECKTRTEVFEISRRLIDRTNANFLVWPPCVEVQRCSGCCNNRNVQCRPTQVQLRPVQVRKIEIVRKKPIFKKATVTLEDHLACKCETVAAARPVT", "values": [{"measurement": "IC50", "setting": "[10]", "result": 0.11, "unit": "nM"}, {"measurement": "Ki", "setting": "[11]", "result": 0.044, "unit": "nM"}]}
